Measured values: article doi:10.1101/2024.03.08.584019

Target: GNNV-P R276A (Dragon grouper (Epinephelus lanceolatus) nervous necrosis virus)
Assay: AUC

GNNV-P R276A (domain or fragment)
stoichiometry N: 3
